Measurements published in US12077763B2, “RNA-based control of powdery mildew” (Greenlight Biosciences, Inc., priority 2021, dated 2024).

B1: GS3324 (nucleic acid)
sense: CAAACUCGCUCAAUUCUCCGUAUGACUAAUUGUUCUUAUACUUAUCCUGGCGCUUCAAAACCGUCUUUGCACAAUGUGUCUUGUCAACUCUCCCUUUCAUCUCGAACUGCAAUCAUAGGUGGUAAUGGUGCAGGAAAAUCAACGUUAAUAAAACUACUUACUGGCGAGACGGUCCCUACUUCUGGGCGAGUCGAAAAACACCCUAAUUUGCGAAUUGGAUAUAUAAAACAACAUGCACUUGAACAUGUUGAAAUGCAUCUCGAGAAAACCCCAAACCAAUAUCUUCAAUGGCGCUAUGCCAAUGGUGAUGAUCGUGAGGUACAUAUGAAACAGACUCGUAUUUUAUCGGAUGCUGAUAAAGCUCAAAUGGAAAAAUGGAUUGAUAUCGAUGGGAAG
antisense: CUUCCCAUCGAUAUCAAUCCAUUUUUCCAUUUGAGCUUUAUCAGCAUCCGAUAAAAUACGAGUCUGUUUCAUAUGUACCUCACGAUCAUCACCAUUGGCAUAGCGCCAUUGAAGAUAUUGGUUUGGGGUUUUCUCGAGAUGCAUUUCAACAUGUUCAAGUGCAUGUUGUUUUAUAUAUCCAAUUCGCAAAUUAGGGUGUUUUUCGACUCGCCCAGAAGUAGGGACCGUCUCGCCAGUAAGUAGUUUUAUUAACGUUGAUUUUCCUGCACCAUUACCACCUAUGAUUGCAGUUCGAGAUGAAAGGGAGAGUUGACAAGACACAUUGUGCAAAGACGGUUUUGAAGCGCCAGGAUAAGUAUAAGAACAAUUAGUCAUACGGAGAAUUGAGCGAGUUUG
B2: GS3333 (nucleic acid)
sense: AUAAAAGACUAAUAUGAUCUAAUUUAAAUCGAACUGAUUGAAAAACAUUUGAUUUGCAAUGAAAAUUAAUAUAUAAUCAAAUAAAAUCAAAUAUUUCUCACUCUGGUGCCGGCCCGUUGUGGUAGGAAGUGACCCAACUCUUAAAUCAGGUCAGCAACAUUCAUAGGCAUCUCUUCAAUUUGAGUGCUAUAAAACUGCUCAAUUUCACGCAUCAUCCGAACAUCAUCAGCUGUUACAAAGUUGAUCGCAACACCUUUUCGUCCAAAUCGACCACCUCGACCAAUUCUGUGAAUAUAAUUCUCACGAUUAGCAGGCAAGUCGUAAUUAAUAACUAAUGAAACUUGUUGUACAUCAAUACCACGAGCAAGAAGAUCAGUGGCAAUUAAAACACGGGAUGA
antisense: UCAUCCCGUGUUUUAAUUGCCACUGAUCUUCUUGCUCGUGGUAUUGAUGUACAACAAGUUUCAUUAGUUAUUAAUUACGACUUGCCUGCUAAUCGUGAGAAUUAUAUUCACAGAAUUGGUCGAGGUGGUCGAUUUGGACGAAAAGGUGUUGCGAUCAACUUUGUAACAGCUGAUGAUGUUCGGAUGAUGCGUGAAAUUGAGCAGUUUUAUAGCACUCAAAUUGAAGAGAUGCCUAUGAAUGUUGCUGACCUGAUUUAAGAGUUGGGUCACUUCCUACCACAACGGGCCGGCACCAGAGUGAGAAAUAUUUGAUUUUAUUUGAUUAUAUAUUAAUUUUCAUUGCAAAUCAAAUGUUUUUCAAUCAGUUCGAUUUAAAUUAGAUCAUAUUAGUCUUUUAU
B3: GS3343 (nucleic acid)
sense: CUAGCACUUACGAGCACGUCUCUUUGAAUUCAACUAGAGACUCACAAUUAUACCUUCCUCCUAUUAAAUCUUUAGUAUUGGAUACGAAAAAUGAGGGAAGUUAUUAGUGUUAAUGUUGGCCAAGCUGGGUGCCAAAUAGCAAACUCUUGCUGGGAGCUCUAUUGCCUUGAGCAUGGUAUACAGCCUGAUGGUUACUUAACGGAGAAGCGCAAGGCCGCCGAACCUGACGAAGGUUUCAGCACUUUUUUUUCAGAGACUGGUCAGGGAAAAUACGUACCUAGAACUAUUUAUUGUGAUCUUGAACCAAAUGUAGUCGAUGAAGUUCGUACGGGUACUUAUCGUAGCUUAUUCCACCCCGAGCAAAUGAUCACCGGAAAAGAAGAUGCAUCAAACAAUUA
antisense: UAAUUGUUUGAUGCAUCUUCUUUUCCGGUGAUCAUUUGCUCGGGGUGGAAUAAGCUACGAUAAGUACCCGUACGAACUUCAUCGACUACAUUUGGUUCAAGAUCACAAUAAAUAGUUCUAGGUACGUAUUUUCCCUGACCAGUCUCUGAAAAAAAAGUGCUGAAACCUUCGUCAGGUUCGGCGGCCUUGCGCUUCUCCGUUAAGUAACCAUCAGGCUGUAUACCAUGCUCAAGGCAAUAGAGCUCCCAGCAAGAGUUUGCUAUUUGGCACCCAGCUUGGCCAACAUUAACACUAAUAACUUCCCUCAUUUUUCGUAUCCAAUACUAAAGAUUUAAUAGGAGGAAGGUAUAAUUGUGAGUCUCUAGUUGAAUUCAAAGAGACGUGCUCGUAAGUGCUAG
B4: GS3335 (nucleic acid)
sense: UUGAGUACAGAGUAGUAGUAAUCUAUUUACAUGAAUUACAAGCUUGUACGGAUGAAUGUUUGUCAUAAGCCUACUCAUCUUUCAUGGCGAAUUUCCCAGGCGGCUAACUACUCUAAUUUGUGAGAGGCAUGAAAGUAAUGAUAGAUUUUCUCUAUGUAUAAUAAAUAGUACUCGUAUUUUAAUCAUUCAAACCCUAGUGAUAUCUUUUGUACUCUUCUCUUAUCAAAUUACAUCAAGUUCAUUCCGUCAUUUCUCGUUAUAUAUGACAUAUAAAGCAUUCCAUUCGCAUGAUAGAAAAUAAGUAAUAUGUAUAAUGACUCAAAGCCUUCACCCCAUAGCCAAAAAGUUGGGUUUAUAGUGAAACUUGUGACGUAGAGGGGAUUAAUAUCGCAUUUUCU
antisense: AGAAAAUGCGAUAUUAAUCCCCUCUACGUCACAAGUUUCACUAUAAACCCAACUUUUUGGCUAUGGGGUGAAGGCUUUGAGUCAUUAUACAUAUUACUUAUUUUCUAUCAUGCGAAUGGAAUGCUUUAUAUGUCAUAUAUAACGAGAAAUGACGGAAUGAACUUGAUGUAAUUUGAUAAGAGAAGAGUACAAAAGAUAUCACUAGGGUUUGAAUGAUUAAAAUACGAGUACUAUUUAUUAUACAUAGAGAAAAUCUAUCAUUACUUUCAUGCCUCUCACAAAUUAGAGUAGUUAGCCGCCUGGGAAAUUCGCCAUGAAAGAUGAGUAGGCUUAUGACAAACAUUCAUCCGUACAAGCUUGUAAUUCAUGUAAAUAGAUUACUACUACUCUGUACUCAA
B5: GS1796: dsRNA trigger SEQ ID NO 211; gene target Putative aldehyde dehydrogenase-like protein C922.07c (nucleic acid)
DNA: TACCCATCCCTGGCTTAAGTATTGATTTATACATTCTAAAAGAGAGTTCGACGCATATTATGATCTACATACGGAAGTTTGGTAGGATGACGAAAACTCCTAACTTTTAAATTGAAAATTCACCAATCTGACAACATATCTATCTTATTATTGTTGCCCTAATCACTGCCTTTAATGAAGGAATAAAAAATTAAAAGATGCCCGTCACTGACTAACGCTTTTTTTTTAATTAGCCAAATTATCAGTTAACTGCAAACCAGCTACAGCGAGACGGTTTAAGCTCCCATATTTACAAAAACTGACTTGATTTGAGTGTAACCAGCTAGACCAGCTTCTCCTAGCTCCCGTCCAATTCCACTCTGTTTTACACCACCAAATGGGACCTTAAAACTTGAATCATTACTTGAATTAATCCATACCATGCCTGATTCAATTTTTCGCGCTACCCGATGAGCCCTCGTAATATCCTTGGTAAATACTGCACTACCAAGGCCATAGGTAGTATCATTTGCTATCTTTAGGGCTTCTTCTTCTGTTTTAAAGCTATTTATGACAACAAAAGGGCCGAAGACTTCTTCACGAAATATTTTCATAGATG
B6: GS3344 (nucleic acid)
sense: GACUAUUGUCCUGACUAAACUAUAUACCAUCUGCUAACACGAUCCUCAAAGCAAAAUUUUUAACCGAUGAUCAUAAGUCAUGUAAAAGUUGAAAUUUCAACACACACCAAGAAAAAUAGCCUUGGUCUUUCAAUUUACAGCAUCCAUAUGGAUGCUAUUUUCUUAUAUAUUUCACCUACCUCCUGAGAACUGCAUCAAGAUUCGAGGUCGUUUCUUUAUAUAAUCAUGUCAAAUAAUGCAUGAUAAAUGAGUAAGAGGCUCUAGGCAGUCAAACUCAAAGAAUUGUCUUCAAUUGUAUUGUCAUUUUAUCUCAUUUGAUAAUGAGUUGUAGCCGCAACUCAAAUCAUUUUUCAUUUUUUGAAAAUGAAGUAAAAGACCGGUUUAAAAAAUUAAAUAUC
antisense: GAUAUUUAAUUUUUUAAACCGGUCUUUUACUUCAUUUUCAAAAAAUGAAAAAUGAUUUGAGUUGCGGCUACAACUCAUUAUCAAAUGAGAUAAAAUGACAAUACAAUUGAAGACAAUUCUUUGAGUUUGACUGCCUAGAGCCUCUUACUCAUUUAUCAUGCAUUAUUUGACAUGAUUAUAUAAAGAAACGACCUCGAAUCUUGAUGCAGUUCUCAGGAGGUAGGUGAAAUAUAUAAGAAAAUAGCAUCCAUAUGGAUGCUGUAAAUUGAAAGACCAAGGCUAUUUUUCUUGGUGUGUGUUGAAAUUUCAACUUUUACAUGACUUAUGAUCAUCGGUUAAAAAUUUUGCUUUGAGGAUCGUGUUAGCAGAUGGUAUAUAGUUUAGUCAGGACAAUAGUC
B7: GS3337 (nucleic acid)
sense: UUUAUUAUGGCACUGGCGUGAAAAUACCUUAUCCCAAGGCAGAUACCGAUAAUGCGAGUGCUCAUGGAUAUACAAACAUUAAGGGCGGUAAUCCGGAAGGACGAGCUUUUCACCAUGGUAGACUAAUAUCUCAGCUCCGUAGAUGCUGCUCCCAGAACCCGAACAUCAAAAUUGUUGAAACGCUGGUUACAGAGACUAUUACGAAUCCUCAAACCCAAACUGUAAUUGGCGUAAGGUCAGAGACAAUGAAUGAUAAAACAGGCAAAAGAGAAGCCGACUACUAUUUGGGAGAUCUCACAAUUAUCGCCGAUGGAUAUGCAUCUAAAUUCCGAAAGCAGUAUAUAGACAAGUCACCCAUCGUAAAAAGCAAAUUCUAUGCUUUAGAGCUGAUAGAUU
antisense: AAUCUAUCAGCUCUAAAGCAUAGAAUUUGCUUUUUACGAUGGGUGACUUGUCUAUAUACUGCUUUCGGAAUUUAGAUGCAUAUCCAUCGGCGAUAAUUGUGAGAUCUCCCAAAUAGUAGUCGGCUUCUCUUUUGCCUGUUUUAUCAUUCAUUGUCUCUGACCUUACGCCAAUUACAGUUUGGGUUUGAGGAUUCGUAAUAGUCUCUGUAACCAGCGUUUCAACAAUUUUGAUGUUCGGGUUCUGGGAGCAGCAUCUACGGAGCUGAGAUAUUAGUCUACCAUGGUGAAAAGCUCGUCCUUCCGGAUUACCGCCCUUAAUGUUUGUAUAUCCAUGAGCACUCGCAUUAUCGGUAUCUGCCUUGGGAUAAGGUAUUUUCACGCCAGUGCCAUAAUAAA

System: E. necator
Assay: Leaf disc assay, dry inoculum (settling tower), decrease in disease severity / hyphal growth (Example 2)
Conditions: decrease in disease severity (hyphal growth) relative to untreated control, value ± SE; for % decrease =/− SE TP1: time point 1 (untreated control hyphal growth ≥50%); for % decrease =/− SE TP2: time point 2

Molecule | % decrease =/− SE TP1 | % decrease =/− SE TP2
B1 | 12 ± 7% | 14 ± 7%
B2 | 5 ± 6% | –
B3 | 7 ± 6% | –
B4 | 12 ± 6% | –
B5 | – | 1 ± 8%
B6 | 1 ± 7% | –
B7 | 19 ± 5% | 15 ± 7%
